Source: paper PMC6159513

B1: dsDNA (dsDNA)
DNA 1: AGGGTTAGGGTTAGGGTTAGGG
DNA 2: CCCTAACCCTAACCCTAACCCT
B2: dsRNA (dsRNA)
RNA 1: UUAGGGUUAGGGUUAGGGUUAGGG
RNA 2: CCCUAACCCUAACCCUAACCCUAA

Experiments:
Experiment in all cases: EMSA
[1] = target: T1, RGG3ΔRGG (UniProt P35637 449-526, del468-506)
T1 chain: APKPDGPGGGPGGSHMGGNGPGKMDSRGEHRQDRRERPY

[2] = target: TLS/FUSΔR (UniProt P35637 1-506)
[3] = target: RGG3ΔP (UniProt P35637 469-526)
[4] = target: TLS/FUSΔP (UniProt P35637 1-526, del449-468)
[5] = target: RBD (RGG1-RGG2-RGG3 containing) (UniProt P35637 212-526)
[6] = target: RGG3 (UniProt P35637 449-526)
[7] = target: TLS/FUS (UniProt P35637 1-526)

Sequence of TLS/FUSΔR (P35637 1-506, stated change not applied): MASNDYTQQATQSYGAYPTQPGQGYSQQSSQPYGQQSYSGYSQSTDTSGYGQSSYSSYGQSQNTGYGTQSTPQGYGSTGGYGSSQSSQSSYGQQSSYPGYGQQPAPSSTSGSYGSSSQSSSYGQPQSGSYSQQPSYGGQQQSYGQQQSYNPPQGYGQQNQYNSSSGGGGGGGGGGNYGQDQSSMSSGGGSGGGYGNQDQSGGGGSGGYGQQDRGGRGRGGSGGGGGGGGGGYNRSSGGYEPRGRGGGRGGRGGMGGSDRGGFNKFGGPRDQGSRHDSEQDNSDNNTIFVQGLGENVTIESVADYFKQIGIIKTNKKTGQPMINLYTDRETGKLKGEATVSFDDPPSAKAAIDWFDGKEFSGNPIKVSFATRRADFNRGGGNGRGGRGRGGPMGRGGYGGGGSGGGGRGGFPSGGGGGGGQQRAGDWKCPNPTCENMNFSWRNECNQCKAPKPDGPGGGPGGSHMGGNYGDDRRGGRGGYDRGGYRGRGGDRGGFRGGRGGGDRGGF
Sequence of RBD (RGG1-RGG2-RGG3 containing) (P35637 212-526): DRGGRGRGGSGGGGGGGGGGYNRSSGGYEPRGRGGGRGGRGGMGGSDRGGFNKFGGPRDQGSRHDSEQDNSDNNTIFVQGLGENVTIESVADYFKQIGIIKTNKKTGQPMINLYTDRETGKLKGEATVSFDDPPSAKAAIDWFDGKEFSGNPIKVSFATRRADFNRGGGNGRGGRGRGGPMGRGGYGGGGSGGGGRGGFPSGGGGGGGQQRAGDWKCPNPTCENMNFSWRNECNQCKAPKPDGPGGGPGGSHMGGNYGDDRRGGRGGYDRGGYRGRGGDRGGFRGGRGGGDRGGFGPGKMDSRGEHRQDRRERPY

Binder | binding result [1] | binding result [2] | binding result [3] | binding result [4] | Kd [5] [nM] | binding result [6] | binding result [7]
AGGGTTAGGGTTAGGGTTAGGG (structured_DNA) [Htelo] | no binding | no binding | no binding | no binding | 6.7 ± 2 | – | –
UUAGGGUUAGGGUUAGGGUUAGGG (structured_RNA) [TERRA] | no binding | no binding | no binding | no binding | 6.2 ± 2 | – | –
AGGGTTAGTGTTAGTGTTAGGG (ssDNA) [ssDNA] | no binding | no binding | – | no binding | – | no binding | –
UUAGGGUUAGUGUUAGUGUUAGGG (ssRNA) [ssRNA] | no binding | no binding | – | no binding | – | no binding | binds
B1 | – | no binding | – | no binding | – | – | –
B2 | – | no binding | – | no binding | – | – | –
